Measured values reported in PMC8480667 (The Journal of Experimental Medicine, 2021).

What was measured:
[1] = biological target: rodent α1β3γ2 GABAA receptor on COS7 cells (Rattus norvegicus (alpha1, beta3); …, UniProt P62813;P63079;P18508); test: immunostaining of cells or tissue
[2] = biological target: rodent α1β3 GABAA receptor on COS7 cells (Rattus norvegicus, UniProt P62813;P63079); test: immunostaining of cells or tissue
[3] = biological target: rodent GABAA receptor β3 subunit alone on COS7 cells (Rattus norvegicus, UniProt P63079); test: immunostaining of cells or tissue
Sequence of rodent GABAA receptor β3 subunit alone on COS7 cells (P63079 26-473): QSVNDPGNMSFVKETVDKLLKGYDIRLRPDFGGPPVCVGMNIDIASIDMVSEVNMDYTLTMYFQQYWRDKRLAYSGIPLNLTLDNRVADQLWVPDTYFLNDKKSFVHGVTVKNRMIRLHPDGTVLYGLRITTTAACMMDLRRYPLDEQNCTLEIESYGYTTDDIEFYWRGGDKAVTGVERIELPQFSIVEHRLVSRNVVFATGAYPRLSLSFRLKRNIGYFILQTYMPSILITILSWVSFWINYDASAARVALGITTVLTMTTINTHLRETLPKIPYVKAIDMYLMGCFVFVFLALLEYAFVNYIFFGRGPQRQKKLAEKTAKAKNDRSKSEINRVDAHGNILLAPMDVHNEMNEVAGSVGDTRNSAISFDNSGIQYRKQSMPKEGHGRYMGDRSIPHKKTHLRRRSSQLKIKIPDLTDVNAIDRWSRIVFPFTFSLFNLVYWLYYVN

[4] = biological target: rodent GABAA receptor γ2 subunit alone on COS7 cells (Rattus norvegicus (paper: rodent), UniProt P18508); test: immunostaining of cells or tissue
Sequence of rodent GABAA receptor γ2 subunit alone on COS7 cells (P18508 39-466): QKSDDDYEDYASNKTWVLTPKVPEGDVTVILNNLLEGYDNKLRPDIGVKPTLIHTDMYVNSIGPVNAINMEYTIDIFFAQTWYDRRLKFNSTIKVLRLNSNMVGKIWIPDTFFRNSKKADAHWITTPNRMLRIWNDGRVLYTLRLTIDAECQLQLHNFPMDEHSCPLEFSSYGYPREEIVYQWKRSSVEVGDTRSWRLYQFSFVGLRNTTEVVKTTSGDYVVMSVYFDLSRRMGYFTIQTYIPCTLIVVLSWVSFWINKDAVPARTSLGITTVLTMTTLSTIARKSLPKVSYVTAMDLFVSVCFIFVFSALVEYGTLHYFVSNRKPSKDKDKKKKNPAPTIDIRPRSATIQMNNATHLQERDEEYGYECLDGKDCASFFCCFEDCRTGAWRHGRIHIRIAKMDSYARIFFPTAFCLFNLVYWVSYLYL

[5] = biological target: rodent α2β3γ2 GABAA receptor on COS7 cells (Rattus norvegicus (paper: rodent), UniProt P23576;P63079;P18508); test: immunostaining of cells or tissue
Sequence of rodent α2β3γ2 GABAA receptor on COS7 cells (P23576 29-451, chain 1 of 3): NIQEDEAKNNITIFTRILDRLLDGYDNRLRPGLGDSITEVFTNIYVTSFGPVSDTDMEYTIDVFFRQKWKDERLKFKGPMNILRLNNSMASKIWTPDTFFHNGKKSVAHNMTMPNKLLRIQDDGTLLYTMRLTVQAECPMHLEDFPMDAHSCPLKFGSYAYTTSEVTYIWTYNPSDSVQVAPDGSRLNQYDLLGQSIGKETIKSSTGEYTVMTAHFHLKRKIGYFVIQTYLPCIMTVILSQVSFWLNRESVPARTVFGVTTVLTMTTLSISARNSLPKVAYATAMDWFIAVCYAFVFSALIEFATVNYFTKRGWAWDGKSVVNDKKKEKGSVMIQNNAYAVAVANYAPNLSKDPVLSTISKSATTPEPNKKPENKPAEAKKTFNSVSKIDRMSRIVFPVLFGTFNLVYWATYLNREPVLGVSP
Sequence of rodent α2β3γ2 GABAA receptor on COS7 cells (P63079 26-473, chain 2 of 3): as the sequence (P63079 26-473) above
Sequence of rodent α2β3γ2 GABAA receptor on COS7 cells (P18508 39-466, chain 3 of 3): as the sequence (P18508 39-466) above

[6] = biological target: rodent α3β3γ2 GABAA receptor on COS7 cells (Rattus norvegicus (α3 rat; β3, γ2 …, UniProt P20236;P63079;P18508); test: immunostaining of cells or tissue
Sequence of rodent α3β3γ2 GABAA receptor on COS7 cells (Rattus norvegicus (P20236 29-493, chain 1 of 3): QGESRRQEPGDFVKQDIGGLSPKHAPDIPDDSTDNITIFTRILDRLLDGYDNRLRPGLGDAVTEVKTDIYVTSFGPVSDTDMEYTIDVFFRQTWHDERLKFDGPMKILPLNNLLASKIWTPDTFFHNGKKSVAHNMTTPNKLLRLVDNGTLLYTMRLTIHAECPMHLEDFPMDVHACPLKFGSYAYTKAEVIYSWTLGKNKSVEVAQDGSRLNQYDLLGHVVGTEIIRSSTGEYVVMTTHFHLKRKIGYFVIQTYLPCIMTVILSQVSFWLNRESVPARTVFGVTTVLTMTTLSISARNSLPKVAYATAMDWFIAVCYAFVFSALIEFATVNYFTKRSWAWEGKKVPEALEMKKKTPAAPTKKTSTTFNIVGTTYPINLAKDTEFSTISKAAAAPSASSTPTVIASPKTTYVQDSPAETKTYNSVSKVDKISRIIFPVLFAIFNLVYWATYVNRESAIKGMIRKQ
Sequence of rodent α3β3γ2 GABAA receptor on COS7 cells (Rattus norvegicus (P63079 26-473, chain 2 of 3): as the sequence (P63079 26-473) above
Sequence of rodent α3β3γ2 GABAA receptor on COS7 cells (Rattus norvegicus (P18508 39-466, chain 3 of 3): as the sequence (P18508 39-466) above

[7] = biological target: rodent α4β3γ2 GABAA receptor on COS7 cells (Rattus norvegicus (α4 rat; β3, γ2 …, UniProt P28471;P63079;P18508); test: immunostaining of cells or tissue
Sequence of rodent α4β3γ2 GABAA receptor on COS7 cells (Rattus norvegicus (P28471 36-552, chain 1 of 3): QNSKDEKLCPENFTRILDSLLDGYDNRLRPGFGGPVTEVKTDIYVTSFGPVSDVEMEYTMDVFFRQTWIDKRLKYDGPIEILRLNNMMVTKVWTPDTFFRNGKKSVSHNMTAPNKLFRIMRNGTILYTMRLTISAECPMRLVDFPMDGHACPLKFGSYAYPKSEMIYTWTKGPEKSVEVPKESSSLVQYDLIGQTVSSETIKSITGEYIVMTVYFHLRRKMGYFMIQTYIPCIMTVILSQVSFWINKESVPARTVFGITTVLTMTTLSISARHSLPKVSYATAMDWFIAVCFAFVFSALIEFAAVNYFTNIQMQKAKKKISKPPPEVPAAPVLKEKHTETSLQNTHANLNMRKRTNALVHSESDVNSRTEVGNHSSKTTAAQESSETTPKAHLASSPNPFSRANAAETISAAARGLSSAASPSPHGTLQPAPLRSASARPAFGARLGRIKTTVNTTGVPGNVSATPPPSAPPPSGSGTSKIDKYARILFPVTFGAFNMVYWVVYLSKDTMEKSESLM
Sequence of rodent α4β3γ2 GABAA receptor on COS7 cells (Rattus norvegicus (P63079 26-473, chain 2 of 3): as the sequence (P63079 26-473) above
Sequence of rodent α4β3γ2 GABAA receptor on COS7 cells (Rattus norvegicus (P18508 39-466, chain 3 of 3): as the sequence (P18508 39-466) above

[8] = biological target: rodent α5β3γ2 GABAA receptor on COS7 cells (Rattus norvegicus (paper: rodent), UniProt P19969;P63079;P18508); test: immunostaining of cells or tissue
[9] = biological target: rat α1β3γ2 GABAA receptor on HEK293T cells (Rattus norvegicus, UniProt P62813;P63079;P18508); test: flow cytometry on cells
[10] = biological target: human α1β3γ2 GABAA receptor on HEK293T cells (Homo sapiens, UniProt P14867;P28472;P18507); test: flow cytometry on cells
[11] = biological target: rat α1β3 GABAA receptor on HEK293T cells (Rattus norvegicus, UniProt P62813;P63079); test: immunostaining of cells or tissue

Row | Binder | binding result [1] | binding result [2] | binding result [3] | binding result [4] | binding result [5] | binding result [6] | binding result [7] | binding result [8] | binding result [9] | binding result [10] | binding result [11]
1 | human monoclonal GABAAR antibody #113-115 (antibody, V domains shown) VH: QVQLVQSGAEVKKPGASVKVSCKASGYTFISYDINWVRQATGQGLEWMGGMDPKSGNTGYAQKFQGRVTMTTNTAISTAYMELSSLRSEDTAVYYCVRGEQSYDRTGYSDWFDPWGQGTLVTVSS VL: not shown | binds | binds | no binding (tested: 5 µg/ml) | no binding (tested: 5 µg/ml) | no binding (tested: 5 µg/ml) | no binding (tested: 5 µg/ml) | no binding (tested: 5 µg/ml) | no binding (tested: 5 µg/ml) | binds | binds | binds
2 | human monoclonal GABAAR antibody #113-175 (antibody, V domains shown) VH: EVQLLESGEGLVQPGGSLRLSCAASGFTFKTYAMSWVRQAPGKGLEWVSAISGSGASTYYADFVEGRFTISRDNSKNTLYLQMNSLRAEDTAVYYCAKEPPAMVWFGGGYFDYWGQGTLVTVSS VL: EIVLTQSPATLSLSPGERATLSCRASQSVSSYLAWYQQKPGQAPRLLIYDASNRATGIPARFSGSGSGTDFTLTISSLEPEDFAVYYCQQRSNWPPYSFGQGTKLEIK | binds | no binding (tested: 5 µg/ml) | no binding (tested: 5 µg/ml) | no binding (tested: 5 µg/ml) | no binding (tested: 5 µg/ml) | no binding (tested: 5 µg/ml) | no binding (tested: 5 µg/ml) | no binding (tested: 5 µg/ml) | binds | binds | no binding
